Data on two molecules can be found in patent US20020086017, “GA binding protein and neurite derived growth factors for use in the treatment of muscular dystrophy” (published 2002).

The subject of data set [1] is GABP-alpha + GABP-beta1 co-expressed in L6 cells (Homo sapiens). In words: cell_activity. The settings on record: luciferase reporter in L6 cells, n=24, p<0.001.
The next data set addresses GABP-beta1 (Homo sapiens, UniProt Q06547 Q06547:2-395). Description: EMSA; GABP-beta alone; 20 mM HEPES pH 7.6, 1 mM MgCl2, 40 mM KCl, on ice. The settings on record: tags: GST fusion (pGEX); label: 32P 5'-end. Here is the method:
(§1) Nuclear extracts were prepared from dishes of L6 myotubes cultured to confluence and total proteins quantified, as previously described [Ausubel F et al; Current Protocols in Molecular Biology; Wiley, N.Y., 1995]. The double stranded UtroNBox probe used was 5′ATCTTCcggaa C 3′ (SEQ ID NO: 7) (N-box underlined, ets-domain italicised and lower case) which was end-labelled with g-P³² ATP using T4 Polynucleotide kinase. Typically, radiolabelled probe (1 ng c. 10-100,000 cpm) was incubated on ice for 20 minutes with 10 μg nuclear extracts or 1 μl GST fusion proteins in a 12.5 μL reaction buffer containing 20 mM HEPES pH 7.6, 1 mM MgCl₂, 0.1 mM EGTA, 40 mM KCl, 10% Glycerol, 1 μg ssDNA. Competition with cold probe was performed with pre-incubation with 1000× excess of unlabelled UtroNBox probe. Complexes were resolved by electrophoresis at 200 V for 2 Hours on 4% Acrylamide gels in 25 mM Tris, 192 mM Glycine, 1 mM EDTA (for nuclear extracts) and 12.5 mM Tris, 96 mM Glycine, 0.5 mM EDTA (for fusion proteins) prior to autoradiographic analysis using a Storm Phosphorimager (Molecular Dynamics, Sunnyvale, Calif.).
(§2) Electrophoretic mobility shift assay was performed with the radiolabelled oligonucleotide UtroNBox probe and purified GABP-α and GABP-β fusion proteins. […]
For orientation: Mobility shift assays separate free from complexed probe on a gel.

The next data set deals with T1, GABP-alpha (Homo sapiens, UniProt Q06546 Q06546:1-454).
T1 sequence: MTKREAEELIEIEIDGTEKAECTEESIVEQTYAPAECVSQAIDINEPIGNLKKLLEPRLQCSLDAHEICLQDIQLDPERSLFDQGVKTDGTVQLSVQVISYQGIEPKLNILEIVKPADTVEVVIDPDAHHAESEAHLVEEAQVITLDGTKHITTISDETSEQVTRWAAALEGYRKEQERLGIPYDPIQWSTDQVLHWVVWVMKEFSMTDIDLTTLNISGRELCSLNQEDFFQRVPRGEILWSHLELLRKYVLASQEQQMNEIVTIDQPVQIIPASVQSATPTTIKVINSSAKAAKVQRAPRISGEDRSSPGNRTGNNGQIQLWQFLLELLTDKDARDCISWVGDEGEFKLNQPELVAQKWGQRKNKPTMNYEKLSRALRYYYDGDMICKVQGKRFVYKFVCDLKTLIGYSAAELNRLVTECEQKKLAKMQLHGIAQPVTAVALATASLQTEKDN
In words: EMSA; competed by 1000x unlabelled probe; 20 mM HEPES pH 7.6, 1 mM MgCl2, 40 mM KCl, on ice. Particulars: tags: GST fusion (pGEX); label: 32P 5'-end. As for the experimental part: as §1, §2

The target of data set [2] is GABP-alpha/GABP-beta1 heterodimer (Homo sapiens, UniProt Q06546;Q06547 Q06546:1-454,Q06547:2-395). Description: EMSA; enhanced relative to GABP-alpha alone, multimeric complexes; 20 mM HEPES pH 7.6, 1 mM MgCl2, 40 mM KCl, on ice. The settings on record: tags: GST fusions (pGEX), reconstituted in vitro; label: 32P 5'-end. As for the experimental part:
as §1, §2

Sequence of GABP-beta1 (Q06547 2-395, one chain of several): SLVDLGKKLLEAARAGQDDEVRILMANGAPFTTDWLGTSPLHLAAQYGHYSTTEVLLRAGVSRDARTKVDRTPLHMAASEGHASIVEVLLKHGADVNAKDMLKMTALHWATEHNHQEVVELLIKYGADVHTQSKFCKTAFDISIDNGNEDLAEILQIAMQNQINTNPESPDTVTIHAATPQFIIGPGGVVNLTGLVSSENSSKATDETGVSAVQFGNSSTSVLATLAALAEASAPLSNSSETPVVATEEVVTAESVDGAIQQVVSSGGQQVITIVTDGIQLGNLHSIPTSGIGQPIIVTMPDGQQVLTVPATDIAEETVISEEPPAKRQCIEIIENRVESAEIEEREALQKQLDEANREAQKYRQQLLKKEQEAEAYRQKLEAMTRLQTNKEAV
Sequence of GABP-alpha/GABP-beta1 heterodimer (Q06547 2-395, one chain of several): as above

Regarding “human utrophin promoter in pPUBF luciferase reporter”, the activity in data set [1] was 238 % of control.

B1: UtroNBox probe (dsDNA)
DNA 1: ATCTTCCGGAAC
DNA 2: GTTCCGGAAGAT
Consider B1, for which the results for the binding result (in the data set with GABP-beta1; in the data set with GABP-alpha; in data set [2]) were “no binding”, “binds” and “binds”, respectively.
